Reference: the nanobody polyreactivity screen of Harvey et al. (2022)

Assay: yeast display, Sf9 membrane polyspecificity reagent, FACS + sequencing; frameworks hold sequencing errors
Outline: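 In a synthetic yeast display library (Saccharomyces cerevisiae BJ5465), nanobody expression was induced with galactose for 36–48 hours. FACS gates were set low and high (top ~1%) using anti-HA fluorescence for expression and streptavidin fluorescence for binding of the Sf9 membrane reagent. Each polyreactivity label is drawn from the gate of origin.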

| Sequence | polyreactivity (PSR sort gate) |
| --- | --- |
| QVQLVESGGGLVQAGGSLRLSCAASGLIFGGNAMGWYRQAPGKERELVAAISRSTGRTYYADSVKGRFTISRDNEKNTVYLQMNSLKPEDTAVYYCNAVGYAFPSYDSWGQGTQVTVSS | high polyreactivity |
| QVQLVESGGGLVQAGGSLRLSCAASGIIFVKYTMGWYRQAPGKERELVAAISRSGGSTYYADSVKGRFTISRDNAKNTVYLQMNSLKPEDTAVYYCNAVSRKVYPGPMDYWGQGTQVTVSS | high polyreactivity |
| QVQLVESGGGLVQAGGSLRLSCAASGSTFTNNDMGWYRPAPGKERELVAAITDSDGITYYADSVKGRFTISRDNAKNTVYLQMNSLKPDDSAVYYCAAYYYGSVAQDREYWGQGTQVTVSS | high polyreactivity |
| QVQLVESGVRLLQAGGSLRLSCAASGRIFGVYAMGWYITAPGKERELVAAIRGGGSTKYADSVKGRFTISRDNAKNTVYLQMKSLKPEDTAVYYFAARKLYYKHDYWGQGTQVTVSS | low polyreactivity |
| QVQLVESGGGLVQAGGSLRLSCAASGRIFEVYAMGWYRQAPGKERELVAAIRSGGNTYYADSVKGRFTISRDNAKNTVYLQMISLKPEDTAVYYCAARYKPPFGGYTYYYWGQGTQVTVSS | high polyreactivity |
| QVQLVESGGGLVQAGGSLRLSCAASGSNFLHNAMGWYRQAPGKERELDAAISGTGGRTYYADSVKGRFTISRDTANNTVYLQMNGLKPEDTAVYYWAARGSHVSIPRYNYWGQGTQVTVSS | high polyreactivity |
| QVQLVESGGGLVQAGGSLRLSCAASGSTFSRYAMGWYRQAPGKERELVAAISSNGGRTYYADSVKGRFTISRDNAKNTVYLQMNSLKPEDTAVYYCAAVNYLTMDYWGQGTQVTVSS | high polyreactivity |
| QVQHVESGGGLVQAGGSLRLSCASSGFILEPYGMGWYRPAPGKERELVAAITSGASTYYADSVKGRFTISRDNAMNTVYLQMNILKPEDTAVYYCAVDPYSTYSEYDSWGQGTQVTVSS | low polyreactivity |
| QVQLVESGVGLVQAGGSLRLSCAASGRTFGVYAMGWYRQAPGKESTYYADSVKGRFTISRDNAKNTVYLQMNSLKPEDTAVYYCNARGGFGYITMDYWGQGTQVTVSS | low polyreactivity |
| QVQLVESGGGLVQAGGSLRLSCAASGLTFKYYAMGWYRQAPGKERELVAAISASGGRTSYADSVKGRFTISRDNAKNTFYLQMNSLKPEDTAVYYCNADITSSGPKSDYWGQGTQVTVSS | high polyreactivity |
| QVQLVESGGGLVKAGCSLRLTCAASARTFRWYAMGWYRQAPGKERELVATISWSSGRTRYADSVKGRFTISRDNANNTVYLQMNSLKPEETAVYYCNADQWDKSYDYWGQGSQVTVSS | high polyreactivity |
| QVQLVESGGGLVQAGGSLRLSCAASGRTILGNAMGWYRQAPGKEREFVATISKTGGSTYYADSVKGRFTISRDNAKNTVYLQMISLKPEDTAVYYCAVEIVSYVYGWLVDYDYWGQGTQVTVSS | low polyreactivity |
| QVQLVESGGGLVQAGRSLRLICAASGRISVFYTMGWYRQAPGKERELVAVIRTSGGRTNYADSVKGRFTISRDNAKNTVYLQMNSLKPEDTAVYYCAARVVRYGFKYYYWGQGTQVTVSS | low polyreactivity |
| QVHLVESGGGLVQAGGSLLLSCAASGFTFRTNAMGWNRQAPGKERELVAVISRRGGSTYYADSVKGRFTISRDNAKNTVYIQMNSLKPEDTAVYYCNAGDGTVGRTYYRSYDYWGQGTQVTVSS | high polyreactivity |
| QVQLVESGGGLVQAGGSLRLSCAASGRTFAPNTMGWYRQAPGKERELVATITVSGGITYADSVKGRFTISRDNAKNTVYLQMNSLKPEDTAVYYCAARTPGWYLPRDYWGQGTQVTVSS | low polyreactivity |
| QFQLLESGGGLVQAGGSLRRSCAASGFTFDYYAMGWSRQAPGKERELVAVNNWSGGDTYYADSVKGRFTISRDNAKNTVYLQMNSLKPEDTAVYYCARVERMRYVGKYYPIRDYWGQGNQVTVSS | high polyreactivity |
| QVQLVESVGGLVQAGGSLRLSCAASGITFFGNAMGWYRQAPGKERELVASISNGDNTNYADSVKGRFTISRDNAKNTVYLQMNSLKPEDTAVYYCAAWLAYSSRYGYWGQGTQVSVSS | low polyreactivity |
| QVQLVESGGGLVQAGGRLRLSCAASGSIILFKDMGWYGQAPGKERELVADITWSGGSTYYADSVKGRFTISCDNAKNTVYLQMHSLKPEDTAVDYCADDPDYYFTRGNYQWGYYWGQGTQVTVSS | low polyreactivity |
| QVQLVESGGGLVQAGGSLRLSCAASGFTFRVYAMGWYRQAPGKERELVAAITRGGSTKYADSVKGRFTISRDNAKNTVYLQMNSLKPEDTAVYYCAARYNGKLNWGQGTQVSVSS | high polyreactivity |
| QVQLVDSGGGLVQAGGSLRLSCAASGFIFRYYAMGWYRQAPGTERELVAAISRSGGSTYYADSVKGRFTISRDNAKNTVYLQMYSLKPEDTAVYYCNRGDVIGRQYDSAYGYWGQGTQVTVSS | high polyreactivity |
| QVQLVESGGGLVQAGGSLRLSCAASGSTFGIYAMRWYRQAPGKERELVAAISSRGSTYYADSVKGRFTISRDNAKNTVYLQMNSLKPEDTAVYYCAAKVWARVDGRQFRMVYWGQGTQVTVSS | high polyreactivity |
| QVQLVESGGGLVQAGGSHRLSCAASGNTFYDYAMGWYRQAPGKERELVAAISSDGNTYYADSVKGRFTFSRDNAKKTVYLQMNSLKPVDTAVYYCAADAWRYYYLSWFGSIGFDYWGQGTQVTVSS | high polyreactivity |

| Sequence | polyreactivity (PSR sort gate) |
| --- | --- |
| QVQLVESGGCLVQAGGSLRLSCASSGITFPGYAMGWYRQAPGKERELVAVIRKSGTSTYYADSVKGRFTISRDNAKNTVDLQMNSLKPEDTAVYYCAAGGPSTLDDYWGQGTQGTVSS | low polyreactivity |
| QVQLVESGGGLVQAGGILRLSCAASGFTFDFNAMGWYRQAPGKERELVAAISSGASTNYADSVKGRYTISRDNAKNTVYLQMNRVIPLDSEVYYCAVYFYGSSTRSYQARFDYWGQGTQVTVSS | high polyreactivity |
| QVQLVESGGGLVQAGGSLRLSCAASGSIFTRNAMGWYRQAPGKERELVATIRKNGASTTYADSVKGRFTISRDNAKNTVYLQMNSLKPEDTAVYYCARDHHTKYNYWGQGTQVTVSS | low polyreactivity |
| QVQLVESGGGLVQAGGSRRLSCAASGITFGWYAMGWYRQAPGKEMEWVATISQSGTSTYYADSVKGRFTISRDNAKNTVYLKMISLKPEDTAFYYCAADYIRGYYFRVRLEVDYWGQGTQVTVSS | low polyreactivity |
| QVQLVESGGGLFQAGGSLRLSCAASGRTFYSNDMGWYRQAPGNERELVAAISWRSGSTHYADSVKGRFTISRDNAKNTVYFQMNSLKPEDTAVFYCAARRRDLVPHYYWGQGTQVTVSS | high polyreactivity |
| QAQLVESGGGLVQAGGSLRLSCAASGYTFTANVMGWYRQAPGKERELVAAISWSGTSTSYADSVKGRFTISRDNAKNNVYLQMNSLKPEDTAVYYCNTVPYYTGSNGYWGQGTQVTVSS | low polyreactivity |
| QVQLVESGGGLVQAGGSLRLSCAASGITFGRYVMGWYRQAPGKERELVATISSGGRTKYADSVKGRFSISRDNAKNTVYLQMNSLKPEDTAGYYCNAESPKWPWYSGFDYWGQGTQVTVSS | high polyreactivity |
| QVQLVESGGGLVQAGGSLRLSCAASGRIFPQYAMGWSRQAPGKERELVAGITSVGSTYYADSVKGRFTISRDNAKNTVYLQMNSLKPEDTAVYYCAAVPSRYVRANRRTYRYYYWGQGTQVTVSS | high polyreactivity |
| QVQLVESGGGLVQAGGSLRLSCAASGFTCSSNAMGWSRLAAGKERELVAAISSSGARTYYADSVKGRFTISRDNAKTTVYLQMNSLKPEDTAVYYCNARGLAGRKGYDYGGQGTQVTVSS | high polyreactivity |
| QVQLVESWGVLVQAGGSLRLSCAASGSIIVNYDMGWYRQARGKERELVAAITWGGGRTYYADSVKRRFTISRDNAKNSVYLQMNSLKPEDTAVYYCAADFSWVINPYEYCGQGTQVTVSS | low polyreactivity |
| QVQLVESGGGLVQAGGSLRLSCAASGSTFPYYARVWYRQEPGKETELVAAISSSGGSTYYADSVKGRFTISRDNAKNTVFLQMNSLKPEDPAVYYCAARRKFPYRHDYWGQGTLVTVSS | high polyreactivity |
| QVQLVESGGGLVQAGGSLRLSCAASGITIRFYAMGWYRQAPGKERELVAAITRGGSTTYADSVKGRFTISRDNAKNTVYLQMNSLKPEDTAVYYCNAQYQSGYYTSYPDRFDYWGQGTQVTVSS | low polyreactivity |
| QVQLVESGGGLVQAGGSLRLSCAASGSTFRYNAKGWYRQAPGKERELVAAINRGGGTDYADSVKGRFTISRDNAKNTVYLQMNSLKPEDTAVYYCAKQFVSYNRWLAYGYWGQATQVTVSS | low polyreactivity |
| QVQLVESGGGLVQAGGSLRLSCAASGSTFETNAMGWYRQAPGTERELVAAIRWSTGNTYYADSVKGRFTISRDNAKNTVYLQMNSLKPEDTAVYYCAAYKGKHYNEGYWGQGTQVTVSS | low polyreactivity |
| QVQLVESGGGLVQAGGSLRLSCAASGSTFRSYVMGWYRQAPGKERELGAGISYRGGTTYYADSVKGRFTISRDNAKNTVYLQMNSLKPEDTAVYNCAADSTPYVLSGNYDYWGQGTQVTVSS | low polyreactivity |
| QVQLVESGGGLVQAGGSLRLSCAASGSTFESNAMGWYRQAPGKERELVAAISRGGNTYYADSVKGRFTISRDNAKITVYLQMNSLKPEDTAVYYCNVDRGKPVPPSEYWGQGTQVTVSS | low polyreactivity |
| QVQLVESGGGLVQAGGSLRLSCAASGNTFVGNAMGWYRQAPGKERELVAVITWSGGSTYYADSVKGRFTISRDNAKNTVYLQMNSLKPEDTAVYYCAARKFGTSVTHRGYWGQGTQVTVSS | low polyreactivity |
| QDQLVESGGGLVQAGGSLRLSCAASGRTFKGYAMGWYRQAPGKERELVAAIDSDGSTSYADSVKGRFTISRDNAKNTVYLQMISLKPEDTAVYYCAAAGQRPYEKGDYWGQGTQVTVSS | low polyreactivity |
| QVQLVESGGGLVQAGGSLRLSCAASGRIFNLYAMGWYRQAPGKERELVAAIRGRGTSTYYADSVKGRFTISRDNAKNTVYLQMNSLKPEDTAVYYCATTSRELGELRIFDYWGQGTQVTVSS | low polyreactivity |
| QVQLVESAGGLVQAGGSLRLSCAASGSTIYGCVMGWYRHAPGKERELVAGITRGGSTNYADSVKGRFTISRDNAKNTVYLQMNSLKPEDTAVYYCATRYFSRYYYWGQGTQVTVSS | high polyreactivity |
| QVQLVESGVGLVQAGGSLPLSCAASGRTFRYYTMGSYRQAPGKERELVAAITQSGDSTYYADSVKGRFTISRDNAKNTFYLQMNSLKPEDTAVYYCNKAWRRRGLYDYWGQGTQVTVSS | high polyreactivity |
